{"source": "paper PMC7714071", "about": "“Interaction of amyloid beta with humanin and acetylcholinesterase is modulated by ATP” (FEBS Open Bio, 2020)", "test_system": "Aβ from H1299 cell-conditioned media", "assay": "ELISA, HN (endogenous and exogenously added) and AChE bound to Aβ from H1299 media on 82E1 antibody", "type": "binding, human", "settings": "H1299 cell-conditioned media, 82E1; Fig. 6", "description": "Human NSCLC cell lines, A549 (ATCC CCL‐185) and H1299 (ATCC CRL‐5803), were purchased from the American Type Culture Collection (ATCC, Manassas, VA, USA). Cells were seeded as we reported earlier in 5 mL HyClone Dulbecco's modified Eagle's medium/nutrient mixture F‐12 (DMEM/F12) (GE Healthcare Life Sciences, Pittsburgh, PA, USA), supplemented with 10% Fetalgro bovine growth serum (FBS; RMBIO, Missoula, MT, USA), 50 U·mL^−1 penicillin, and […] streptomycin (Invitrogen, Life Technologies, Carlsbad, CA, USA) in 25‐cm^2 tissue culture flasks, and allowed to grow overnight in an incubator at 37 °C, 95% humidity, and 5% CO2. The cells were counted after trypan blue staining, with a hemocytometer.\nELISAs were carried out as we previously reported. […] TBST was then used to wash the wells 4× before proceeding in one of two ways: (a) biotinylated samples were analyzed by adding 100 µL streptavidin–HRP conjugate in TBST (1 : 2500 dilution) to the samples followed by incubation for 3 h at RT on a shaker, or (b) samples without biotin were analyzed by adding 100 µL TBST containing the primary antibody as per the manufacturer's recommendation, incubating for 3 h at RT on a shaker, followed by washing the wells 4× with TBST. […] The reaction was stopped with 100 µL 2 M H2SO4 after incubating at RT for 0.5–15 min, resulting in a yellow color change, measured by absorbance at 450 nm. […]", "data": [{"molecule": "acetylcholinesterase (protein) EGREDAELLVTVRGGRLRGIRLKTPGGPVSAFLGIPFAEPPMGPRRFLPPEPKQPWSGVVDATTFQSVCYQYVDTLYPGFEGTEMWNPNRELSEDCLYLNVWTPYPRPTSPTPVLVWIYGGGFYSGASSLDVYDGRFLVQAERTVLVSMNYRVGAFGFLALPGSREAPGNVGLLDQRLALQWVQENVAAFGGDPTSVTLFGESAGAASVGMHLLSPPSRGLFHRAVLQSGAPNGPWATVGMGEARRRATQLAHLVGCPPGGTGGNDTELVACLRTRPAQVLVNHEWHVLPQESVFRFSFVPVVDGDFLSDTPEALINAGDFHGLQVLVGVVKDEGSYFLVYGAPGFSKDNESLISRAEFLAGVRVGVPQVSDLAAEAVVLHYTDWLHPEDPARLREALSDVVGDHNVVCPVAQLAGRLAAQGARVYAYVFEHRASTLSWPLWMGVPHGYEIEFIFGIPLDPSRNYTAEEKIFAQRLMRYWANFARTGDPNEPRDPKAPQWPPYTAGAQQYVSLDLRPLEVRRGLRAQACAFWNRFLPKLLSATDTLDEAERQWKAEFHRWSSYMVHWKNQFDHYSKQDRCSDL", "values": [{"measurement": "AChE bound to Aβ", "result": "barely detectable levels"}]}]}
